{
  "source": "paper PMC4703387",
  "about": "“Identification of the Calmodulin-Binding Domains of Fas Death Receptor” (PLoS ONE, 2016)",
  "origin": "cited, not measured here",
  "biological_target": "T1, Ca^2+/CaM (Homo sapiens, UniProt P0DP23)",
  "T1 construct": "made in house",
  "conditions": "ref [32]",
  "source_text": "We have also shown that both lobes of Ca^2+/CaM are important for FasDD binding. […] Our attempt to identify the interaction regions by ... || To identify the Ca^2+/CaM-binding regions in large proteins is not a simple task. To predict the Ca^2+/CaM-binding site, a web-based tool is often used to provide favorable scores based on multiple criteria including hydropathy, α-helical propensity, hydrophobic residue content, residue charge, residue weight, helical class and occurrence of particular residues.[39] However, this method can still provide biased results.",
  "data": [
    {"molecule": "FasDD: intracellular death domain of Fas (protein) SKYITTIAGVMTLSQVKGFVRKNGVNEAKIDEIKNDNVQDTAEQKVQLLRNWHQLHGKKEAYDTLIKDLKKANLCTLAEKIQTII", "values": [
      {"measurement": "stoichiometry of Ca^2+/CaM–FasDD complex", "result": "two Ca^2+/CaM molecules binding simultaneously to FasDD"}
    ]}
  ]
}
